Data from the supplement of paper PMC6379048.

What was measured:
Assay in all cases: EC50 of free RNA motif oligo competing protein binding to immobilised probe
PABPN1 = molecular target: T1, PABPN1 (UniProt Q86U42)
T1 sequence: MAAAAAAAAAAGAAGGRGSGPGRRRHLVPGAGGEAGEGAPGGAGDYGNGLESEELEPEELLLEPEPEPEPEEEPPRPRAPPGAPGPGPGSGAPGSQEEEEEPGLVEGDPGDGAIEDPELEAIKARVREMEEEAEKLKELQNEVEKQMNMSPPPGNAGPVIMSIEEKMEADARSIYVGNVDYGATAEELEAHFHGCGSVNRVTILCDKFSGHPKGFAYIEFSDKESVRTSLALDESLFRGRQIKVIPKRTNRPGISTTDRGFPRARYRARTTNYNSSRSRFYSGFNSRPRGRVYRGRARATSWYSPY
Summary of the method: (§1)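 HEK293-FT lysate (2.5 mg protein/well) was treated with free RNA oligos (0 nM to 30 μM) for 1 h at 4°C, then with the same oligos on NHS-Sepharose beads for 30 min at 4°C. Bound proteins were quantified by label-free LC-MS/MS relative to the control. EC50 came from a four-parameter log-logistic fit, and Kd is EC50 times a protein-dependent depletion factor.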

PIP5K1A = PIP5K1A (UniProt Q99755)
Sequence of PIP5K1A (Q99755 whole entry): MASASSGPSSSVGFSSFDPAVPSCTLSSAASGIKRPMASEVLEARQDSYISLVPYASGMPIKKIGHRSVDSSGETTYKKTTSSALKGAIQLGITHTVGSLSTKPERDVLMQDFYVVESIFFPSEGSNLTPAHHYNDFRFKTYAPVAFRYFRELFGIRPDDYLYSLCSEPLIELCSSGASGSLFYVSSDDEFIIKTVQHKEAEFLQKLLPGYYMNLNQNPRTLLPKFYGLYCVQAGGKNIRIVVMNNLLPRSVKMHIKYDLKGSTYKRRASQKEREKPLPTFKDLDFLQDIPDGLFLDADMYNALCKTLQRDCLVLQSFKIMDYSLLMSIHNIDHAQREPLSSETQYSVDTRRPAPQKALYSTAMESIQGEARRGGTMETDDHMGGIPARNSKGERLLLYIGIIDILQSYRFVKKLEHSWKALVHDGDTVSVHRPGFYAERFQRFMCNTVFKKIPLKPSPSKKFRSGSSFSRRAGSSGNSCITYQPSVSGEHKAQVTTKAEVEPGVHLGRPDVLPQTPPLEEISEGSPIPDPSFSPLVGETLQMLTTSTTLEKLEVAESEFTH
Summary of the method: as §1

SF3B3 = molecular target: T2, SF3B3 (UniProt Q15393)
T2 sequence: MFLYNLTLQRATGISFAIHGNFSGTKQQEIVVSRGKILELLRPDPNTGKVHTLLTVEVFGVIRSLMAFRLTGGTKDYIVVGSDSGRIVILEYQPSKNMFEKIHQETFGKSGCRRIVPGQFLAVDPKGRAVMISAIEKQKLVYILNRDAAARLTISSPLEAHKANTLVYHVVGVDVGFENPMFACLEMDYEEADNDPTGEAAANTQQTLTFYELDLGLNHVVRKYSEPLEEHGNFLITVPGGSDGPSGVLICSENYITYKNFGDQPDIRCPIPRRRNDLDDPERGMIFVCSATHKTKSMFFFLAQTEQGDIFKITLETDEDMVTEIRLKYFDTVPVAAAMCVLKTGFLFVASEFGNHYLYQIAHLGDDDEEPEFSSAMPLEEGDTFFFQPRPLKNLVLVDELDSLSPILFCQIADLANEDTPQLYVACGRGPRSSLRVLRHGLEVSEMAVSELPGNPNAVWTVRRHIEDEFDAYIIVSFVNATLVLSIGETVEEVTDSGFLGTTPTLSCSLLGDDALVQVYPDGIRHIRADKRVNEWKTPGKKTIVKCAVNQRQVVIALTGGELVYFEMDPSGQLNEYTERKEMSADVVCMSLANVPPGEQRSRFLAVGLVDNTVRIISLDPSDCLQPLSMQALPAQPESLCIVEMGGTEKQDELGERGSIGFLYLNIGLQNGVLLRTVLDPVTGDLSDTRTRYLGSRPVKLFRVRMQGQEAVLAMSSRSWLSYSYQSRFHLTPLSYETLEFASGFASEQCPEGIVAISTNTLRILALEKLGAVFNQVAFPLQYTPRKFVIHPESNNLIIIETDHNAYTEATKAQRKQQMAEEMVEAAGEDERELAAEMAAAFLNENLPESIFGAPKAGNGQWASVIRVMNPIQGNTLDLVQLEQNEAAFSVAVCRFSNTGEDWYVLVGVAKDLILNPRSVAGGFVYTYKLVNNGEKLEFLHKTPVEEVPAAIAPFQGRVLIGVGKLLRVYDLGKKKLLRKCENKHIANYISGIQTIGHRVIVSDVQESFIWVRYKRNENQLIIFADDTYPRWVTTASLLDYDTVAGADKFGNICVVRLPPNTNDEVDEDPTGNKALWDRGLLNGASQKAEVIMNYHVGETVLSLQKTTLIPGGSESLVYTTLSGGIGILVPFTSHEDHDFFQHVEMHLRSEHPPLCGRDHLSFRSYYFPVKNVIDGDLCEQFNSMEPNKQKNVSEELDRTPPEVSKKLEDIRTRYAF
Summary of the method: as §1

SRSF10 = SRSF10 (UniProt O75494)
Sequence of SRSF10 (O75494 whole entry): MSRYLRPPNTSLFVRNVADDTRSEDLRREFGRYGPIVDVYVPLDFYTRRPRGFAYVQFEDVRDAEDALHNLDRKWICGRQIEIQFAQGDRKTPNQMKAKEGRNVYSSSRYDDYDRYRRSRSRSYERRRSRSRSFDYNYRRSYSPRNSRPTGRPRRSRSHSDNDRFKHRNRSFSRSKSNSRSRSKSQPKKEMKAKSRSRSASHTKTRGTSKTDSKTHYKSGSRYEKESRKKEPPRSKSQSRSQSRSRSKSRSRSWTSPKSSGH
Summary of the method: as §1

U2AF1 = molecular target: T3, U2AF1 (UniProt Q01081)
T3 sequence: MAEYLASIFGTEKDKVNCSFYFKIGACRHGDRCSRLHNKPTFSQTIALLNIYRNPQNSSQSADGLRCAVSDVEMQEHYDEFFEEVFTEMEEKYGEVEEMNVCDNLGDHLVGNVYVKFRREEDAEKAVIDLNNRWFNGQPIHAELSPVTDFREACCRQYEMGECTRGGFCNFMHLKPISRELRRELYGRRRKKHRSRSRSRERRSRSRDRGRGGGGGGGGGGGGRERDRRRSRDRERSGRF
Summary of the method: as §1

PCBP1 = PCBP1 (UniProt Q15365)
Sequence of PCBP1 (Q15365 whole entry): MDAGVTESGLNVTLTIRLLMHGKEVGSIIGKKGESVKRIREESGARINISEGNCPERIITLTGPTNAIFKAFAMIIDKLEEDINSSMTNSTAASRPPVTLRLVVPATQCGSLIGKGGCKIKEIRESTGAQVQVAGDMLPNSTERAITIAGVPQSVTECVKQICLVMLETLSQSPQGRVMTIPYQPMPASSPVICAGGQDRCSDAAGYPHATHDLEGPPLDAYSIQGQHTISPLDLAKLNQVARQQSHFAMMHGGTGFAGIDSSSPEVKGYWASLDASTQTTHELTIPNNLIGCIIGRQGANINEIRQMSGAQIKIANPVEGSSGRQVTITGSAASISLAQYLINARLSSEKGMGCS
Summary of the method: as §1

RPS14 = RPS14 (UniProt P62263)
Summary of the method: as §1

DAP3 = DAP3 (UniProt P51398)
Summary of the method: as §1

HNRNPA0 = molecular target: T4, HNRNPA0 (UniProt Q13151)
T4 sequence: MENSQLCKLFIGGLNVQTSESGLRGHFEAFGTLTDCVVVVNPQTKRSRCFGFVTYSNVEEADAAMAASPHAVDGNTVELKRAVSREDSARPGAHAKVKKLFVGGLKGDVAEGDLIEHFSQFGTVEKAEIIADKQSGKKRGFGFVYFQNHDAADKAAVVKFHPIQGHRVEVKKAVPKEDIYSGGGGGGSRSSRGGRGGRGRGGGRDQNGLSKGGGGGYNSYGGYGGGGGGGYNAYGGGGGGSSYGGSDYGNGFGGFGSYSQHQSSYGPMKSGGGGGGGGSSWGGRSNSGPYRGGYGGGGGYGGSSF
Summary of the method: as §1

MRPS2 = MRPS2 (UniProt Q9Y399)
Summary of the method: as §1

MRPS31 = MRPS31 (UniProt Q92665)
Summary of the method: as §1

## AAUAAA
PABPN1
  EC50: 3520 nM
PIP5K1A
  EC50: 2250 nM
SF3B3
  EC50: 4880 nM
SRSF10
  EC50: 1150 nM
U2AF1
  EC50: 1460 nM

## CUGUCCU
PCBP1
  EC50: 3360 nM
RPS14
  EC50: 180 nM

## UAUUUAU
DAP3
  EC50: 51.4 nM
HNRNPA0
  EC50: 4860 nM
MRPS2
  EC50: 29.1 nM
MRPS31
  EC50: 93.7 nM
